Reference: PMC3664666 (Science signaling, 2012)
Where a chain is given by its changes, count along the chain named. Names may count otherwise.

B1: FhaA FHA domain Q461A (domain or fragment)
chain: PQGGGYAEPAGRDYDYGQSGAPDYGQPAPGGYSGYGQGGYGSAGTSVTLQLDDGSGRTYQLREGSNIIGRGADAQFRLPDTGVSRRHLEIRWDGQVALLADLNSTNGTTVNNAPVQEWQLADGDVIRLGHSEIIVR
B2: FhaA FHA domain R474A (domain or fragment)
chain: B1 chain with A72Q, R85A
B3: FhaA FHA domain R459A (domain or fragment)
chain: B1 chain with R70A, A72Q

Target: T1, phosphorylated Mt-MviN KHD 681-963 (M. tuberculosis, UniProt P9WJK2 681-963, phosphothreonine at 947)
T1 sequence: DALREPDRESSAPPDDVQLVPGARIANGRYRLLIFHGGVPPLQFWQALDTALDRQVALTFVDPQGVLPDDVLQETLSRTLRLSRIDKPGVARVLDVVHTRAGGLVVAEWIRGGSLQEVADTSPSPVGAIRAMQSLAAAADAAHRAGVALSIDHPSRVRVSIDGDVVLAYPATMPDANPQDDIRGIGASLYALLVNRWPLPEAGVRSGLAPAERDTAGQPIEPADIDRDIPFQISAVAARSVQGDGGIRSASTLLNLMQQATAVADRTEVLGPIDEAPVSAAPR
Assay: ITC

Binder | binding result | fold reduction of the binding affinity against the wild type
B1 | binds | 
B2 |  | 41 fold
B3 |  | > 170 fold
